Reference: paper PMC11574364

Tests used:
[1] = molecular target: T1, QKI (recombinant His-QKI) (UniProt Q96PU8); test: fluorescence polarization; conditions: 2 mM Mg2+; FP: 20 mM HEPES pH 7.4, 150 mM NaCl, 2 mM MgCl2, 1 U/ul RiboLock, 10 mM DTT, 3 nM Cy3-RNA, 5 min, room temperature; domain array: 20 mM Tris-HCl pH 7.4, 200 mM …
T1 sequence: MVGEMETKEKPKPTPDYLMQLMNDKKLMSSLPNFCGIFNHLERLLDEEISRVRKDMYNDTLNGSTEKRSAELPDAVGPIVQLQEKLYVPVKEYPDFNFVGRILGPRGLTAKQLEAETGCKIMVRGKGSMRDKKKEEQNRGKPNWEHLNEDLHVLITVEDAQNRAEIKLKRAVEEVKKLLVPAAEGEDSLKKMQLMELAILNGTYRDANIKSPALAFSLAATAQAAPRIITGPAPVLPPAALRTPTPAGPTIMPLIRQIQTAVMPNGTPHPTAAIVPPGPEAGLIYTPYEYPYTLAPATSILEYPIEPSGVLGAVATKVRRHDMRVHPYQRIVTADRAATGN

[2] = molecular target: T2, HIS-QKI (RNA-binding domain array) (human, UniProt Q96PU8 1-341); test: protein microarray probed with biotinylated miRNA; Domain array: 20 mM Tris-HCl pH 7.4, 200 mM KCl, 0.2 mM EDTA, 0.05% NP40, 2 ug/ul heparin, overnight 4 C. ORF array: PBS pH 7.0 with RNase inhibitor, 100 ng RNA; high values mean tight binding
T2 sequence: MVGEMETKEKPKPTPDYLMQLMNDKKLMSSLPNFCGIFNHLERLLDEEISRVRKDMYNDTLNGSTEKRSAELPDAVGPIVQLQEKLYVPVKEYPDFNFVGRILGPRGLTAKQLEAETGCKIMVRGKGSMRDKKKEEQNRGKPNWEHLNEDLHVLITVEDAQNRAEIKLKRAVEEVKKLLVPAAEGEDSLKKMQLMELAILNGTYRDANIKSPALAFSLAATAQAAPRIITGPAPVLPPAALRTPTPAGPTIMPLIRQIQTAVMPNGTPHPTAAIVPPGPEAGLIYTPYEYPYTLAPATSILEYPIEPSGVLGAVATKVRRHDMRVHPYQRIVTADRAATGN

ZIC3 = ZIC3 (human, UniProt O60481 1-467); test: protein microarray; FP: 20 mM HEPES pH 7.4, 150 mM NaCl, 2 mM MgCl2, 1 U/ul RiboLock, 10 mM DTT, 3 nM Cy3-RNA, 5 min, room temperature; domain array: 20 mM Tris-HCl pH 7.4, 200 mM
Sequence of ZIC3 (O60481 whole entry): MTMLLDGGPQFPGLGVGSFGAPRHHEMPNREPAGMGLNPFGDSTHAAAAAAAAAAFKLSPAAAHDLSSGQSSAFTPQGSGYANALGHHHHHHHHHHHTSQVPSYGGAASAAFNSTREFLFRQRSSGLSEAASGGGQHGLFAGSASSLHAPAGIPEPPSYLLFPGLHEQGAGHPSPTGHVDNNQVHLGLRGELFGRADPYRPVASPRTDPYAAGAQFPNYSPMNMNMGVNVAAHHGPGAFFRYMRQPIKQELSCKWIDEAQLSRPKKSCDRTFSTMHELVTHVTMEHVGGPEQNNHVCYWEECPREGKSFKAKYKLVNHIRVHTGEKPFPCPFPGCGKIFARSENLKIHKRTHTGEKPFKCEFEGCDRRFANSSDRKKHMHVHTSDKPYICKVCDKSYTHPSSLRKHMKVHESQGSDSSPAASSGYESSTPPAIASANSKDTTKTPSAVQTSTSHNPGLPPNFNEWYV

ARL10 = molecular target: T3, ARL10 (human, UniProt Q8N8L6 1-244); test: as above
T3 sequence: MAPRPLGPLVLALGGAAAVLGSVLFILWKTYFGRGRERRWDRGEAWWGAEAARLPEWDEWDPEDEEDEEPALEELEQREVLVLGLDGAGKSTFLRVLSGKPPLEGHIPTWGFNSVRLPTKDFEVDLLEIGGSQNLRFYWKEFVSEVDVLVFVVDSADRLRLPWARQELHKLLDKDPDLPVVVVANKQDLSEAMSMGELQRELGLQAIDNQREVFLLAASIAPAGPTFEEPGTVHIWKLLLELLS

ZNF597 = molecular target: T4, ZNF597 (human, UniProt Q96LX8 1-424); test: as above
T4 sequence: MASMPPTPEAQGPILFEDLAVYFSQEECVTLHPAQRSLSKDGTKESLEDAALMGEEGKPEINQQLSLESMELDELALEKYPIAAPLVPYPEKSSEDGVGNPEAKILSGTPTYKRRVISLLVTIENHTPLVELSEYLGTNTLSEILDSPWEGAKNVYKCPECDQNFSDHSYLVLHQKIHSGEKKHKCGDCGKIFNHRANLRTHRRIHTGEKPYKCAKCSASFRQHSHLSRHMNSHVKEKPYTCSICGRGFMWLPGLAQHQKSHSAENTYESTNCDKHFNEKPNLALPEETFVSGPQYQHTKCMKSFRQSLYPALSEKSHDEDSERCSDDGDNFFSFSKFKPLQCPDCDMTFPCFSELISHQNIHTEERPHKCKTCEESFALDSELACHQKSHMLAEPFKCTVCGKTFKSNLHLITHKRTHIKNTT

ISY1 = molecular target: T5, ISY1 (human, UniProt Q9ULR0 1-285); test: as above
T5 sequence: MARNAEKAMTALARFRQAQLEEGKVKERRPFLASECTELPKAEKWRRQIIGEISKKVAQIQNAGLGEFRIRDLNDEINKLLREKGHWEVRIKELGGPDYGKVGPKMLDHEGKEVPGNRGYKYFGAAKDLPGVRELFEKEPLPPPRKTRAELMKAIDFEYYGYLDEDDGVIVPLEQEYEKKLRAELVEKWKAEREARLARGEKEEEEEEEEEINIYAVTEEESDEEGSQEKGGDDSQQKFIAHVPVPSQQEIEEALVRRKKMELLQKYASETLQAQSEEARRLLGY

ZNF490 = ZNF490 (human, UniProt Q9ULM2 1-529); test: as above
Sequence of ZNF490 (Q9ULM2 whole entry): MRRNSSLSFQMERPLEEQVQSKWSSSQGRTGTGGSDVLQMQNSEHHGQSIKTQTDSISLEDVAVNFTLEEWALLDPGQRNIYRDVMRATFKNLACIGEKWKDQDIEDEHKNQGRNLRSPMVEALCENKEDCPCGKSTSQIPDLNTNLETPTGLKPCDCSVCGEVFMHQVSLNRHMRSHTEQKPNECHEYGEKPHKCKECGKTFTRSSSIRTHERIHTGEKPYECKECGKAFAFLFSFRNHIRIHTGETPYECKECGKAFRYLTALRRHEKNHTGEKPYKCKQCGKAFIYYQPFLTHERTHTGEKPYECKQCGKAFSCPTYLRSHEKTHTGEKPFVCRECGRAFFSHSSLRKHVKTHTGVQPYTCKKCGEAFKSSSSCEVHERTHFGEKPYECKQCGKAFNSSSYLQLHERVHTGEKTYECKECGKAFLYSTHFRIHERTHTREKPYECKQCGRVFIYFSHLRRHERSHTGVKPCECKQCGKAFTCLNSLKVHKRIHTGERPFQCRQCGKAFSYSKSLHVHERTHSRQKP

QKI (human ORF array) = molecular target: T6, QKI (human ORF array) (human, UniProt Q96PU8 1-341); test: as above
T6 sequence: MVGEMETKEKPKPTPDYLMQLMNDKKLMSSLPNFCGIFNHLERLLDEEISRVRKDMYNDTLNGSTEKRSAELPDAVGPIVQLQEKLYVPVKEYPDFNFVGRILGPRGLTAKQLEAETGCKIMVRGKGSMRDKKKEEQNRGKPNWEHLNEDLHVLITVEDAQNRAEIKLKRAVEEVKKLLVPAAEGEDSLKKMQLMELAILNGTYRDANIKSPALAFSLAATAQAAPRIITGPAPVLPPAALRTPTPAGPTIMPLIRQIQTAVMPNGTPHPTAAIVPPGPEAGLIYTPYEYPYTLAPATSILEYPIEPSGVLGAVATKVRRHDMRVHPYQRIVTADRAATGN

Molecule: UAGCUUAUCAGACUGAUGUUGA [miR-21-Cy3]
- Kd [1]: 48.5 nM

Molecule: UGAGGUAGUAGGUUGUGUGGUU [let-7b-Cy3]
- Kd [1]: 8.07 nM

Molecule: CAGUGCAAUGAUGAAAGGGCAU [miR-130b-Cy3]
- Kd [1]: 7.03 nM

Molecule: UGAGGUAGUAGGUUGUGUGGUU (ssRNA) [let-7b biotin/Cy3]
- binding signal [2]: 1340 ± 56.7 fluorescence intensity

Molecule: UAGCUUAUCAGACUGAUGUUGA (ssRNA) [miR-21 (internal labeling)]
- binding result (ZIC3): binds
- binding result (ARL10): binds
- binding result (ZNF597): binds
- binding result (ISY1): binds
- binding result (ZNF490): binds

Molecule: UGAGGUAGUAGGUUGUGUGGUU (ssRNA, 5' phosphate; amino-C6 U at position 18) [let-7b (internal labeling)]
- binding result (QKI (human ORF array)): binds
- binding result (ZIC3): binds
- binding result (ARL10): binds
- binding result (ZNF597): binds
- binding result (ISY1): binds
- binding result (ZNF490): binds

Molecule: CAGUGCAAUGAUGAAAGGGCAU (ssRNA) [miR-130b biotin/Cy3]
- binding signal [2]: 428 ± 18.2 fluorescence intensity

Molecule: UAGCUUAUCAGACUGAUGUUGA (ssRNA) [miR-21 biotin/Cy3]
- binding signal [2]: 26.4 ± 0.354 fluorescence intensity

Molecule: UGAGGUAGUAGGUUGUAUAGUU (ssRNA) [let-7a biotin/Cy3]
- binding signal [2]: 336 ± 27.5 fluorescence intensity

Molecule: AGAGGUAGUAGGUUGCAUAGUU (ssRNA) [let-7d biotin/Cy3]
- binding signal [2]: 1210 ± 167 fluorescence intensity

Molecule: UGAGGUAGUAGGUUGUAUGGUU (ssRNA) [let-7c biotin/Cy3]
- binding signal [2]: 1280 ± 235 fluorescence intensity

Molecule: CAGUGCAAUGAUGAAAGGGCAU (ssRNA) [miR-130b (internal labeling)]
- binding result (ZIC3): binds
- binding result (ARL10): binds
- binding result (ZNF597): binds
- binding result (ISY1): binds
- binding result (ZNF490): binds
